“Also recorded” adds a separate entry of the source.
B1: CCL4/MIP-1β: canonical CCR5 ligand (protein, UniProt P14097 24-92, looked up)
C-C motif chemokine 4: APMGSDPPTSCCFSYTSRQLHRSFVMDYYETSSLCSKPAVVFLTKRGRQICANPSEPWVTEYMSDLELN
B2: NAMPT414-491: Truncated hNAMPTcif, residues 414-491 of full length NAMPT, SEQ ID NO: 4 (His-tagged: SEQ ID NO: 5) (protein)
chain: FKDPVADPNKRSKKGRLSLHRTPAGNFVTLEEGKGDLEEYGQDLLHTVFKNGKVTKSYSFDEIRKNAQLNIELEAAHH
B3: hrNAMPT(1): Commercially available human recombinant NAMPT source 1 (Peprotech); used in the mouse injury model (protein)
chain: PPNTSKVYSYFECREKKTENSKLRKVKYEETVFYGLQYILNKYLKGKVVTKEKIQEAKDVYKEHFQDDVFNEKGWNYILEKYDGHLPIEIKAVPEGFVIPRGNVLFTVENTDPECYWLTNWIETILVQSWYPITVATNSREQKKILAKYLLETSGNLDGLEYKLHDFGYRGVSSQETAGIGASAHLVNFKGTDTVAGLALIKKYYGTKDPVPGYSVPAAEHSTITAWGKDHEKDAFEHIVTQFSSVPVSVVSDSYDIYNACEKIWGEDLRHLIVSRSTQAPLIIRPDSGNPLDTVLKVLEILGKKFPVTENSKGYKLLPPYLRVIQGDGVDINTLQEIVEGMKQKMWSIENIAFGSGGGLLQKLTRDLLNCSFKCSYVVTNGLGINVFKDPVADPNKRSKKGRLSLHRTPAGNFVTLEEGKGDLEEYGQDLLHTVFKNGKVTKSYSFDEIRKNAQLNIELEAAHH
B4: NAMPT422-491: Truncated hNAMPTcif, residues 422-491 of full length NAMPT, SEQ ID NO: 6 (His-tagged: SEQ ID NO: 7) (protein)
chain: NKRSKKGRLSLHRTPAGNFVTLEEGKGDLEEYGQDLLHTVFKNGKVTKSYSFDEIRKNAQLNIELEAAHH
B5: CCL8/MCP-2: canonical CCR5 ligand (protein, UniProt Q9Z121 24-97, looked up)
C-C motif chemokine 8: GPDKAPVTCCFHVLKLKIPLRVLKSYERINNIQCPMEAVVFQTKQGMSLCVDPTQKWVSEYMEILDQKSQILQP
B6: hrNAMPT(2): Second commercially available human recombinant NAMPT protein source (protein)
chain: MNPAAEAEFNILLATDSYKVTHYKQYPPNTSKVYSYFECREKKTENSKLRKVKYEETVFYGLQYILNKYLKGKVVTKEKIQEAKDVYKEHFQDDVFNEKGWNYILEKYDGHLPIEIKAVPEGFVIPRGNVLFTVENTDPECYWLTNWIETILVQSWYPITVATNSREQKKILAKYLLETSGNLDGLEYKLHDFGYRGVSSQETAGIGASAHLVNFKGTDTVAGLALIKKYYGTKDPVPGYSVPAAEHSTITAWGKDHEKDAFEHIVTQFSSVPVSVVSDSYDIYNACEKIWGEDLRHLIVSRSTQAPLIIRPDSGNPLDTVLKVLEILGKKFPVTENSKGYKLLPPYLRVIQGDGVDINTLQEIVEGMKQKMWSIENIAFGSGGGLLQKLTRDLLNCSFKCSYVVTNGLGINVFKDPVADPNKRSKKGRLSLHRTPAGNFVTLEEGKGDLEEYGQDLLHTVFKNGKVTKSYSFDEIRKNAQLNIELEAAHH
B7: NAMPT430-491: Truncated hNAMPTcif, residues 430-491 of full length NAMPT, SEQ ID NO: 8 (His-tagged: SEQ ID NO: 9) (protein)
chain: LSLHRTPAGNFVTLEEGKGDLEEYGQDLLHTVFKNGKVTKSYSFDEIRKNAQLNIELEAAHH

Key:
C2C12 myoblasts = test: C2C12 myoblast proliferation by EdU incorporation; format: cell-based, mouse; conditions: exogenously added factor vs control
Description: FIG. 2. […] In vitro assay assessing the effects of exogenously introduced factors on C2C12 myoblast proliferation. Proliferation is identified by EdU incorporation. […] Mean+S.D. Two-way ANOVA with Tukey's multiple comparison test. […] Mean±SEM
The mouse muscle cell line C2C12 (Yaffe, D. & Saxel, O. Serial passaging and differentiation of myogenic cells isolated from dystrophic mouse muscle. Nature 270, 725 (1977) were cultured in growth media (Dulbecco's Modified Eagle Medium (4.5 g/l D-Glucose, No L Glutamine, No Sodium Pyruvate (Gibco))+20% Fetal Bovine Solution-One Shot (Gibco)+1% Glut Max 100×(Gibco)). Cells were maintained at 37° C., 5% CO2. Cells at 70% confluence, passage 8 were extracted from T75 flasks with 0.025% Tryspin EDTA (Gibco), neutralised in growth media, spun at 180×g for 5 min to pellet cells. The cells were then resuspended in 10 ml of fresh growth media. 500 μl of cells were plated on a 8-well on cover glass II (Sarstedt) chamber slide at a density of 1×10^3 cells/ml. Cells were left 4 h at 37° C. to re-attach. For drug treatments, the media were supplemented with appropriate doses and cultured for 6 h.

[1] = system: C2C12 murine myoblast cells; test: C2C12 cell proliferation, CyQuant Proliferation Assay kit; format: cell-based, mouse; conditions: 20 nM, 48 hours, compared with full-length NAMPT
Description: FIG. 7. Human NAMPT variants stimulate muscle progenitor proliferation. C2C12 mouse myoblasts were treated with 20 nM full length NAMPT (NAMPT) or NAMPT variants for (NAMPTxxx-xxx, where xxx are amino acid numbers) 48 hours. Quantification of cell proliferation was performed using CyQuant Proliferation Assay kit. […] Box and whiskers denote median with minimum and maximum values. n=4-5 independent experiments per protein. Statistical significance is indicated as exact p-value. […] Significance between conditions were analysed by one-way ANOVA with Tukey post-hoc test.
Human NAMPTcif (hNAMPTcif) and truncated variants of hNAMPTcif were designed by progressively removing N-terminal regions containing positively charged amino acids. Four truncations were produced and numbered T1 to T4. Recombinant protein was produced using a bacterial expression system. hNAMPTcif variants were purified by FPLC using His-tag affinity purification. Cell proliferation assays were performed using C2C12 murine myoblast cells treated with purified recombinant hNAMPTcif variants, as well as full length NAMPT. Cells were treated with 10 nM of recombinant protein for 48 hours in DMEM supplemented with 2% foetal bovine serum at 37° C., 5% CO2. PBS treatment was used as a negative control. 10% foetal bovine serum was used as positive control. Quantification of proliferation was performed using commercially-available CyQuant Proliferation Assay kit (Thermo Fisher Scientific) according to manufacturer's instructions and read using a Synergy H1 plate reader (BioTek). Data were presented as percentage increase versus.
The heparin-binding sequence of placenta growth factor 2 (PIGF2) was fused to the N-terminus of NAMPTcif and produced using a bacterial expression system. PIGF-NAMPTcif was purified by FPLC using His-tag affinity purification followed by size exclusion chromatography. Cell proliferation assays were performed using C2C12 murine myoblast cells treated with purified recombinant NAMPTcif and full length NAMPT. Cells were treated with 2 nM, 10 nM and 20 nM concentrations of recombinant protein for 48 hours in DMEM supplemented with 2% foetal bovine serum at 37° C., 5% CO2. PBS treatment was used as a negative control. 10% foetal bovine serum was used as positive control. Quantification of proliferation was performed using commercially-available CyQuant Proliferation Assay kit (Thermo Fisher Scientific) according to manufacturer's instructions and read using a Synergy H1 plate reader (BioTek). Data were presented as percentage increase versus negative control. A two-tailed unpaired t-test was used to determine statistical significance.

[2] = system: Human primary satellite cells; test: Human primary satellite cell proliferation, CyQuant; format: cell-based; conditions: 20 nM; 48 hours; media with IGF-1 and FGF-2
Description: (§1) FIG. 8. Human NAMPT variants stimulate human satellite cell proliferation. Human primary satellite cells were treated with 20 nM full length NAMPT (NAMPT) or NAMPT variants (NAMPTxxx-xxx, where xxx are amino acid numbers) for 48 hours. The media contained the growth factors IGF-1 and FGF-2 as well. Quantification of cell proliferation was performed using CyQuant Proliferation Assay kit. […] Treatment with 20% FBS was used as a positive control. Box and whiskers denote median with minimum and maximum values. n=6-10 independent experiments per protein. Statistical significance is indicated as p-value and determined by one-sample t-test.
The inventors next sought to compare the activity of full length NAMPT, NAMPT402-491 and NAMPT422-491 on human satellite cell proliferation. Human primary satellite cells were treated with 20 nM full length NAMPT (NAMPT) or NAMPT402-491 and NAMPT422-491 for 48 hours.

[3] = system: needle-stab muscle injury in zebrafish larvae; test: Larval zebrafish muscle injury and EdU pulse-chase; format: in vivo; conditions: 57 nM in Ringer's solution immediately after injury at 4 dpf; EdU at 2 dpi
Description: Zebrafish larvae (4 dpf) were anaesthetized in 0.01% tricaine (MS-222) (Sigma-Aldrich) in Ringer's solution. Needle-stab injury was carried out in the dorsal myotome, consisting in a single 30-gauge needle puncture that generates an extensive injury with many damaged muscle fibres. Nampt fragment treatments were carried out by incubating 4 dpf needle-stab-injured larvae in 57 nM Nampt in Ringer's solution immediately after injury. Needle-stab-injured larvae at 6 dpf (2 dpi) were transferred into Ringer's solution containing 50 μg ml-1 EdU (Thermo Fisher Scientific) for 1 h and chased for a further 1.5 h before fixation. Samples were developed using the Click-iT EdU Alexa Fluor 647 imaging Kit (Thermo Fisher Scientific) following the manufacturer's protocol, followed by a phalloidin immunostaining (Thermo Fisher Scientific). EdU+ cells in a region encompassing two myotomes on either side of the injury were quantified as the number of EdU+ cells outside the injury region. EdU+ cells in the caudal haematopoietic tissue were excluded from this analysis. Statistical analysis has been conducted using Two-way ANOVA with Tuckey's multiple comparison test.

[4] = system: Human primary endothelial cells derived from umbilical vein; test: Human primary endothelial cell proliferation, CyQuant; format: cell-based; conditions: 20 nM; 48 hours
Description: as §1, with “9.” for “8.”, “endothelial” for “satellite”, “cells derived from umbilical vein” for “cells”, “hours.” for “hours. The media contained the growth factors IGF-1 and FGF-2 as well.”, “10%” for “20%”, “n=6” for “n=6-10”
Similarly, the inventors next investigated the activity of full length NAMPT, NAMPT402-491 and NAMPT422-491 on human endothelial cell proliferation. Human endothelial cells were derived from umbilical vein and treated with 20 nM full length NAMPT (NAMPT) or NAMPT variants for 48 hours.

Molecule	myoblast proliferation (EdU incorporation), factor alone (C2C12 myoblasts)	cell proliferation, percentage increase vs PBS-treated control [1]	other results
B1	could be recapitulated		myoblast proliferation (EdU incorporation), factor alone (C2C12 myoblasts; listed as mrCCL4): functioned to enhance C2C12 proliferation
B2		enhanced cellular proliferation compared to full-length NAMPT	
B3	dose dependent increase in myoblast proliferation; also recorded: comparable and significant dose dependent increases in myoblast proliferation		
B4		highest cellular proliferation compared to all NAMPT variants tested; also recorded: statistically significant increase in proliferation	satellite cell proliferation, percentage increase vs PBS-treated control [2]: even greater satellite cell proliferation compared to both full length NAMPT and NAMPT402-491; cell proliferation (EdU-positive cells) within the injury zone [3]: significant increase in cell proliferation within the injury zone; also recorded: significantly higher levels as compared to human recombinant-NAMPT (hrNAMPT); endothelial cell proliferation, percentage increase vs PBS-treated control [4]: still stimulated endothelial cell proliferation above negative control
B5	could be recapitulated		myoblast proliferation (EdU incorporation), factor alone (C2C12 myoblasts; listed as mrCCL8): functioned to enhance C2C12 proliferation
B6	dose dependent increase in myoblast proliferation; also recorded: comparable and significant dose dependent increases in myoblast proliferation		
B7		enhanced cellular proliferation compared to full-length NAMPT	

Source: patent publication US20250257332A1, “TRUNCATED AND FUSION PROTEINS” (Monash University, priority 2021, published 2025)
